This passage reports Heteromer/Monomer Ratio and % inhibition of 125I-labeled VEGF binding results from patent US20040210041A1.

Positions of bridges follow the written chain, without caps; N, C: chain ends. Groups on a side chain read outwards from the residue. Chains are numbered I, II in the order given. *: point of attachment. Biotin = O=C1N[C@H]2[C@H](CS[C@H]2CCCCC(=O)*)N1; AEEA = NCCOCCOCC(=O)O

Assay [1] deals with KDR (VEGFR-2), full-length receptor on cells (human), P35968. The experiment in a line: specific binding of neutravidin-HRP complex at 3.33 nM to KDR-transfected cells; reference P5-XB (1X) + P1-XB (3X).
For assay [2] the target is unchanged. As to the kind of experiment: specific binding of neutravidin-HRP complex at 2.78 nM to KDR-transfected cells; reference P1-XB (3X) + P6-XB (1X) at 5.55 nM.
The target is the same in assay [3]. The experiment in a line: competition with 300 pM 125I-VEGF on KDR-transfected 293H cells; peptide 30 µM. Conditions: remark: other sources report otherwise.
The target is the same in assay [4]. The experiment in a line: competition with 300 pM 125I-VEGF on KDR-transfected 293H cells; peptide 0.3 µM. The conditions noted are these: remark: other sources report otherwise.

KDR (VEGFR-2), full-length receptor on cells (human), P35968, sequence (P35968 20-1356): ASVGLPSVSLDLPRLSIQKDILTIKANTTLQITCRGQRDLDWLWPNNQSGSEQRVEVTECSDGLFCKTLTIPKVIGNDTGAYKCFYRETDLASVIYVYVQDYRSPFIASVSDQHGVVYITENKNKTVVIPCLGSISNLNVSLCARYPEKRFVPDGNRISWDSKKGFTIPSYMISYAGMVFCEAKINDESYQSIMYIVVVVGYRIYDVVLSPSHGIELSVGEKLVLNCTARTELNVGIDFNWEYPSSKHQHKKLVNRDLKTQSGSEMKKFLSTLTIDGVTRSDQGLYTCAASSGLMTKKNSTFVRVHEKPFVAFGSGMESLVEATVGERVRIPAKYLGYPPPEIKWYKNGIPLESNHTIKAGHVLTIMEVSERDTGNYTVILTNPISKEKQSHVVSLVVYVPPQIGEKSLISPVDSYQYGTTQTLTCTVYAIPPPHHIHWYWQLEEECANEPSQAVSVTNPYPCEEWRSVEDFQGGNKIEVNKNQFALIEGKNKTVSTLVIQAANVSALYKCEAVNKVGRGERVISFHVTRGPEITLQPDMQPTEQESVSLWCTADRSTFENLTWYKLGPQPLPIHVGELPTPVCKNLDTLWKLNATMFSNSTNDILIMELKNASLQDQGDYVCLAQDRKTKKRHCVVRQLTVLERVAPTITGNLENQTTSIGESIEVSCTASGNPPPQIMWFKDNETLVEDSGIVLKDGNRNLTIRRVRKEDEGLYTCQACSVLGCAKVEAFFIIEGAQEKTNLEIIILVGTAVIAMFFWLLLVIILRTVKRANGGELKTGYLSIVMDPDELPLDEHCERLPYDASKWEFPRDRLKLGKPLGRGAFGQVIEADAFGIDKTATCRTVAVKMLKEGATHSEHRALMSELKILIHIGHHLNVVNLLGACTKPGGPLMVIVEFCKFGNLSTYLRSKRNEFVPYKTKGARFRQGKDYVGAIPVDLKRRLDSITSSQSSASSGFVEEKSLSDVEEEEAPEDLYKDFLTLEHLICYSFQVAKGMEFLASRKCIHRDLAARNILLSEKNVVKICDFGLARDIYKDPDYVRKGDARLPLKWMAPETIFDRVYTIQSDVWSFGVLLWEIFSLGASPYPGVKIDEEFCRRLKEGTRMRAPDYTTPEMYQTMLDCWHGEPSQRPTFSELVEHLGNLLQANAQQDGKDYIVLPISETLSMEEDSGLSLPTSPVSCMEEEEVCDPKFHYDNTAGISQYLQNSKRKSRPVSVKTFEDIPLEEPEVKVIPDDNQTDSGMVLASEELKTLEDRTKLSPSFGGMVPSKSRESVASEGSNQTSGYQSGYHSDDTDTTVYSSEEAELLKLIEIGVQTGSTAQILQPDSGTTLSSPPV

B1: P1-XB (2X) + P6-XB (1X) + P5-XB (1X) / neutravidin-HRP (peptide, not shown: large carriers; small tags and cut ends)
peptide 1: Ac-GDSRVCWEDSWGGEVCFRYDPGGGK([AEEA-AEEA-Biotin])-NH2
peptide 2: Ac-AGPKWCEEDWYYCMITGTGGGK([AEEA-AEEA-Biotin])-NH2
modifications: disulfide I:6-I:16, II:6-II:13 (inferred); not fully specified; also: bound via biotin to neutravidin-HRP
Consider B1, for which the Heteromer/Monomer Ratio in assay [1] is 109 fold.

B2: P1-XB (1X) + P6-XB (1X) + P5-XB (2X) / neutravidin-HRP (peptide, not shown: large carriers; small tags and cut ends)
peptide 1: Ac-GDSRVCWEDSWGGEVCFRYDPGGGK([AEEA-AEEA-Biotin])-NH2
peptide 2: Ac-AGPKWCEEDWYYCMITGTGGGK([AEEA-AEEA-Biotin])-NH2
modifications: disulfide I:6-I:16, II:6-II:13 (inferred); not fully specified; also: bound via biotin to neutravidin-HRP
B2: the Heteromer/Monomer Ratio in assay [1] came to 213 fold.

B3: P1-XB (1X) + P6-XB (1X) + P12-XB (2X) / neutravidin-HRP (peptide, not shown: large carriers; small tags and cut ends)
peptide 1: Ac-GDSRVCWEDSWGGEVCFRYDPGGGK([AEEA-AEEA-Biotin])-NH2
peptide 2: Ac-AGPTWCEDDWYYCWLFGTGGGK([AEEA-AEEA-Biotin])-NH2
modifications: disulfide I:6-I:16, II:6-II:13 (inferred); not fully specified; also: bound via biotin to neutravidin-HRP
For B3, the Heteromer/Monomer Ratio in assay [2] worked out at 47 fold.

Turning to Ac-AGPKWCEEDWYYCMITGTGGGK([AEEA-AEEA-Biotin])-NH2 (disulfide 6-13 (inferred)) [P5-XB], the % inhibition of 125I-labeled VEGF binding was 48% in assay [3] and 24.4% in assay [4].

B4: P1-XB (1X) + P6-XB (2X) + P5-XB (1X) / neutravidin-HRP (peptide, not shown: large carriers; small tags and cut ends)
peptide 1: Ac-GDSRVCWEDSWGGEVCFRYDPGGGK([AEEA-AEEA-Biotin])-NH2
peptide 2: Ac-AGPKWCEEDWYYCMITGTGGGK([AEEA-AEEA-Biotin])-NH2
modifications: disulfide I:6-I:16, II:6-II:13 (inferred); not fully specified; also: bound via biotin to neutravidin-HRP
Consider B4, for which the Heteromer/Monomer Ratio in assay [1] worked out at 242 fold.
